In paper PMC3948749, “Engineering of Pyranose Dehydrogenase for Increased Oxygen Reactivity” (PLoS ONE, 2014):
Where a chain is given by its changes, count along the chain named. Numbers in names are those of the source.

B1: AmPDH (Agaricus meleagris pyranose dehydrogenase, pdh1) (Macropsalliota meleagris) (protein)
chain: AITYQHPDDLPSGVDYDFIVAGGGTAGLVVASRLSENSNWKVLVIEAGPSNKDAFVTRVPGLASTLGAGSPIDWNYTTIPQDGLDGRSLDYPRAKILGGCSTHNGMVYTRGSKDDWNSWAGIIGDQGLGWDSILPAIKKAEKFTQDFTDQSVKGHIDPSVHGFDGKLSVSAAYSNISFNDLLFETTKELNAEFPFKLDMNDGKPIGLGWTQYTIDNHAERSSSATSYLESTGDNVHVLVNTLVTRVLSASGNGTDFRKVEFAVDANSPKKQLEAKKEVIVAGGVIASPQILMNSGIGERKVLQAVGIDTLIDNPSVGKNLSDQGATSVMFDTTLPSTDFDVDAALTEWTNSHTGPLARGARLNHLTFVRLPDDKLNGQDPSSGKNSPHIEFQFAQITPQVPTLGVPKQAPLPAANSYRLLLQLAVVNLYSISRGSISLSDNNPFTYPLIDLNMFKEDIDIAILREGIRSAGRMFSSKAFKNSVNKFVYPPADATSDEDLDAFLRSSTFSYVHGVGTLSMSPKGASWGVVNPDFKVKGTSGLRVVDASVIPHAPAAHTQLPVYAFAEYASALIAKSYN
notes: monomeric glycoprotein about 90 kDa, 64 kDa deglycosylated
B2: AmPDH (Agaricus meleagris pyranose dehydrogenase, pdh1) (Macropsalliota meleagris; H128Y) (protein)
chain: B1 chain with H103Y
notes: as for B1

Substrate: O=C1C(Cl)=CC(=Nc2ccc(O)cc2)C=C1Cl
Experiment: steady-state kinetics, DCIP reduction
Type: biochemical, Macropsalliota meleagris
Settings: apparent, electron acceptor, 25 mM D-glucose as donor, pH 4, 30 °C
Description: steady-state kinetics, DCIP reduction on AmPDH (Agaricus meleagris pyranose dehydrogenase, pdh1)

Protein	Km [µM]	kcat [s⁻¹]	kcat/Km [M⁻¹ s⁻¹]
B1	140 ± 10	40.7 ± 4.1	291000
B2	20 ± 10	2.8 ± 0.5	140000
